The koff is a measure of how fast the partners let go of each other. Low values mean a long-lived complex, high ones a short-lived complex. Usually kon stands for the rate constant with which the complex forms. Broadly, the EC50 is the concentration that produces a half-maximal response. Higher therefore signals a need for much substance.

Results on 4 molecules are retold here after patent US20110020369A1.

Experiment [1] concerns the target hTSLPR-Ig fusion (human) (UniProt Q9HC73). The experiment is described as follows: SPR BIAcore T100, huTSLPR-hIg amine-coupled on CM5, antibody as analyte, bivalent analyte model, n = 2. (In general: Surface plasmon resonance follows binding to a sensor surface in real time, without labels.)
The target in experiment [2] is hTSLPR-ECTO-His (human). The experiment in a line: ELISA, plate coated with TSLPR 50 ng/well, HRP goat anti-mouse detection.
Experiment [3] deals with hTSLPR-Ig fusion (human) (UniProt Q9HC73). The experiment in a line: SPR BIAcore T100, huTSLPR-hIg amine-coupled on CM5, antibody as analyte, bivalent analyte model, n = 6.
Chain of hTSLPR-Ig fusion (human) (Q9HC73 23-231): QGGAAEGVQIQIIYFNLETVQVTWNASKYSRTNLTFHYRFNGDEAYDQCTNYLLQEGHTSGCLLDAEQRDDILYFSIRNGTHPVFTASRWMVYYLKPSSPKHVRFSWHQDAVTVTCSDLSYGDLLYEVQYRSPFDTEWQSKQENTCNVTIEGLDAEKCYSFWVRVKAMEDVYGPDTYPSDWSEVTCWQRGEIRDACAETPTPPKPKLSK

B1: chimeric anti-human TSLPR 13H5 antibody (antibody, V domains shown, not shown: a dimerising Fc or GST)
VH: QVLLKQSGPSLVQPSQSLSITCTVSGFSLSRYGVHWVRQSPGKGLEWLGVIWRSGSTDYNAAFMSRLSITQDNSKSQVFFNMNSLQSDDSAIYYCAKKAFYVMDYWGQGTSVTVSS
VL: DIQMTQTTSSLSASLGDRVTISCRASQDISIYLNWYQQKPDGTVKLLIYYTSRLHSGVPSRFSGSGSGTNFSLTITNLEEEDIATYFCQQGNTLPWTFGGGTKLEIKR
Turning to B1, in experiment [1], the Kd was 0.102 nM, the dissociation rate constant (koff) stood at 0.000136 s⁻¹ and the kon is 1.34e+06 M⁻¹ s⁻¹.

B2: mouse anti human TSLPR antibody 13H5 (antibody, mouse IgG1, V domains shown)
VH: QVLLKQSGPSLVQPSQSLSITCTVSGFSLSRYGVHWVRQSPGKGLEWLGVIWRSGSTDYNAAFMSRLSITQDNSKSQVFFNMNSLQSDDSAIYYCAKKAFYVMDYWGQGTSVTVSS
VL: DIQMTQTTSSLSASLGDRVTISCRASQDISIYLNWYQQKPDGTVKLLIYYTSRLHSGVPSRFSGSGSGTNFSLTITNLEEEDIATYFCQQGNTLPWTFGGGTKLEIKR
Consider B2, for which the concentration for a half-maximal effect (EC50) in experiment [2] stood at 0.0106 µg/mL. In experiment [3], this molecule gave a Kd of 0.037 nM, an off-rate (koff) of 7.8e-05 s⁻¹ and a kon of 2.12e+06 M⁻¹ s⁻¹.

B3: mouse anti-human TSLPR antibody 70E8 (antibody, mouse IgG1, V domains shown)
VH: DVQLQESGPDLVKPSQSLSLTCTVTNYSITSGYSWPWIRQFPGNKLEWLGYIHSSGRTNYNPSLKSRISITRDTSKNQFFLQLNSVTPEDTATYYCARSQLGLVFFAYWGQGTLVTVSA
VL: DIVMTQSQKFMSTSVGDRVSVTCKASQSVGANVAWYQQIPGHSPKVLIYSASYRFSGVPDRFTGSGSGTDFTLTISNVQSEDLAEYFCQQYNSYPYTFGGGTKLEIRR
The molecule B3 gave an EC50 in experiment [2] of 0.0162 µg/mL. In experiment [1], this molecule registered a Kd of 0.079 nM, an off-rate constant (koff) of 0.00012 s⁻¹ and an on-rate constant (kon) of 1.52e+06 M⁻¹ s⁻¹.

B4: rat anti-human TSLPR antibody 18B3 (antibody, V domains shown)
VH: EVQLVESGGGLVQPGRSLRLSCVASGFTFNNYWMTWVRQAPGKGLEWVASITDTSGRTYYPDSVKGRFTISRDHAKSTLYLQMNSLRPEDTATYYCTKTLGGIPRDWGQGVMVTVSS
VL: NIQLTQSPSLLSASVGDRVTLSCKGSQNINNYLAWYQQKLGEAPKLLIFKTNILQTGIPLRFSGSGSGTDYTLTISSLHCEDLATYYCYQFNNGFTFGPGTKLELKR
In experiment [1], B4 showed a Kd of 0.008 nM, an off-rate (koff) of 1.5e-05 s⁻¹ and an on-rate (kon) of 1.81e+06 M⁻¹ s⁻¹.
